Measured values taken from paper PMC9808565.

Molecular target: human ACE2 protein (hACE2), recombinant, His-tagged, Met1-Ser740 (human) (UniProt Q9BYF1)
Assay: ITC

UniProt Q9BYF1, sequence (Q9BYF1 18-740): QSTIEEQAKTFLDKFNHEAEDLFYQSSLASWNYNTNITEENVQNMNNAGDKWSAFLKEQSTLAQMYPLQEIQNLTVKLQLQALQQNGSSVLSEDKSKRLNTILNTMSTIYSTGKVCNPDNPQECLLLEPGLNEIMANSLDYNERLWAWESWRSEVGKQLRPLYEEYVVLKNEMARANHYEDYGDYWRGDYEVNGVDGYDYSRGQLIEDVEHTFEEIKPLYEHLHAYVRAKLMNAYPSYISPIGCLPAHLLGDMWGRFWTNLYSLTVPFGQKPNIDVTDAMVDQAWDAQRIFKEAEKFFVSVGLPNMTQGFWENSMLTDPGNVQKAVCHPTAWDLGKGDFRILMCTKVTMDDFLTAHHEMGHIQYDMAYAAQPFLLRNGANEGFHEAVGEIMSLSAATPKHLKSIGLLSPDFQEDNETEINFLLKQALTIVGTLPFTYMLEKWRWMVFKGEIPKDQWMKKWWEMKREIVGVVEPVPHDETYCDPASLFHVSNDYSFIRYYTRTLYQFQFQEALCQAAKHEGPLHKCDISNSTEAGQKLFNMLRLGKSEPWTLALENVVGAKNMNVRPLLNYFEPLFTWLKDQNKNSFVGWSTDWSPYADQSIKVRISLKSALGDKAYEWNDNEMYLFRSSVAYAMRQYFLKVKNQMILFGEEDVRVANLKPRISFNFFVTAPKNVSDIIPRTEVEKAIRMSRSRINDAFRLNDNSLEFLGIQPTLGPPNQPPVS

SARS-CoV-1 spike RBD (RBD^CoV1), Arg306-Phe527, His-tagged (domain or fragment)
Kd: 146 nM | dH: -10.5 kcal/mol | stoichiometry N: 1.03
